Where a chain is given by its changes, count along the chain named. In names and notes the source's numbering stands.

For assay [1], the target named is T1, dimeric soluble FcγRIIa-Fc (UniProt P12318 34-217).
T1 construct: also called soluble FcγIIA; FcγIIA
T1 sequence (looked up): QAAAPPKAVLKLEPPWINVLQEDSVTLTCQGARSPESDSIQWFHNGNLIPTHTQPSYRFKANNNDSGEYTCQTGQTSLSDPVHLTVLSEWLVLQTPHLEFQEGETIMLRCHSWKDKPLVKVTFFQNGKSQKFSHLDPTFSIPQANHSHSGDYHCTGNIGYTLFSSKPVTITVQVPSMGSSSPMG
The experiment in a line: ELISA, 100 ng/well soluble FcγIIA coated. On the procedure:
Protocal for ELISA assay: 100 ng/well of soluble FcγIIA in carbonate buffer was coated on 96-well Maxisorp plates at 4° C. overnight. A serial of two-fold dilution of conditioned medium of Ch2B6; hu2B6HC/hu2B6LC; hu2B6HC/hu2B6LC(N50Y); hu2B6HC/hu2B6LC(N50Y,V51A); and purified IV.3 starting from 25 ng/well was added to the each well. The plate was incubated at room temperature for 1 hour. The binding was detected by HRP conjugated F(ab′)2 goat anti human IgG F(ab′)2 specific secondary antibody for Ch2B6 and all hu2B6 samples and HRP conjugated F(ab′)2 goat anti mouse IgG (H+L) secondary antibody for IV.3. After incubation with the secondary antibody for approximately 45 minutes, the plate was developed using a TMB substrate. After 5 mins incubation, the reaction was stopped by 1% H₂SO₄. The OD₄₅₀ nm was ready by SOFTmax program. Between each step, the plates were washed 3 times with PBS/0.1% Tween 20. The plates were blocked by 0.5% BSA in PBS/0.1% Tween 20 for 30 mins at room temperature before adding the serial diluted antibodies.

The target in assay [2] is T2, FcγRIIB (CD32B) on Daudi cells (human, UniProt P31994 43-310).
T2 construct: whole, on cells; also called this human B cell tumor line
T2 sequence (looked up): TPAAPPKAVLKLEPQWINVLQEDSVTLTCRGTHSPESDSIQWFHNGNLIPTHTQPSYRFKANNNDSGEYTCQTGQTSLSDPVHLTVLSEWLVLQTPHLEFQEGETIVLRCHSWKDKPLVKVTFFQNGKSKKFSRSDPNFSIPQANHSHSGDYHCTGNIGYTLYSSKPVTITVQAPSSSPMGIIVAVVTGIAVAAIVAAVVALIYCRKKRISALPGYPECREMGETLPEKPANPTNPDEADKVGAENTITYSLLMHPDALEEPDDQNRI
In words: FACS on Daudi cells, antibody at 0.1 µg/ml. The method, then:
(§1) Protocol for FACS analysis. Approximately 10⁶ Daudi cells were used for each antibody staining Cells were washed once with PBS. Primary antibodies (Ch2B6, Hu2B6Hc/ch2B6Lc, human IgG1 ) were diluted into 0.5, 0.1, 0.02 μg/mL in PBS/1% BSA and 100 μL of diluted antibodies was transferred to the cells. After 30 mins incubation at 4° C., cells were washed once with 1 mL PBS/1% BSA. PE conjugated F(ab′)₂ fragment of goat anti human IgG Fc specific (Jackson ImmunoReseach, Inc.) was used as secondary antibody at 1:1000 dilution. After 30 mins incubation at 4° C., cells were washed once with 1 mL PBS/1% BSA. The cells were then resuspended in 500 μL of PBS/1% BSA and subjected to be FACS analysis.
(§2) Transfections of HEK-293 cells were performed using the following combinations: hu2B6HC/hu2B6LC; hu2B6HC/hu2B6LC(N50Y); hu2B6HC/hu2B6LC(N50Y,V51A); ch2B6HC/ch2B6LC. After three days in culture the amount of human IgG expressed was quantitated by an ELISA assay, using the method described above. Binding to dimeric soluble FcγRIIb-Fc was determined by ELISA assay. […] FACS analysis was then performed to measure the binding of the mAbs to Daudi cells (Table 8).

In assay [3] the target is T2, FcγRIIB (CD32B) on Daudi cells. The experiment in a line: FACS on Daudi cells, antibody at 0.5 µg/ml. On the procedure: as §1, §2
Assay [4] has the same target. The experiment in a line: FACS on Daudi cells, antibody at 0.02 µg/ml. On the procedure:
as §1, §2

B1: hu2B6HC/hu2B6LC(N50Y) (antibody, V domains shown)
VH: QVQLVQSGAEVKKPGASVKVSCKASGYTFTNYWIHWVRQAPGQGLEWMGVIDPSDTYPNYNKKFKGRVTMTTDTSTSTAYMELRSLRSDDTAVYYCARNGDSDYYSGMDYWGQGTTVTVSS
VL: EIVLTQSPDFQSVTPKEKVTITCRTSQSIGTNIHWYQQKPDQSPKLLIKYVSESISGVPSRFSGSGSGTDFTLTINSLEAEDAATYYCQQSNTWPFTFGGGTKVEIK
notes: Human C-Gamma1 and C-kappa constant regions; also called Hu2B6N50Y; Hu2B6 N50Y
For B1, the binding result in assay [1] is recorded as “no binding”.

B2: hu2B6HC/hu2B6LC(N50Y,V51A) (antibody, V domains shown)
VH: B1 VH
VL: B1 VL with V51A
notes: Human C-Gamma1 and C-kappa constant regions; also called Hu2B6N50Y,V51A; Hu2B6N50Y, V51A
On to B2, for which the binding result in assay [1] was “no binding”.

B3: hu2B6HC/hu2B6LC mAb (humanized 2B6) (antibody, V domains shown)
VH: B1 VH
VL: B1 VL with Y50N
notes: Human C-Gamma1 and C-kappa constant regions
For the molecule B3, the binding result in assay [1] is “no binding”.

B4: ch2B6HC/ch2B6LC mAb (chimeric 2B6) (antibody, V domains shown)
VH: QVQLQQPVTELVRPGASVMLSCKASDYPFTNYWIHWVKQRPGQGLEWIGVIDPSDTYPNYNKKFKGKATLTVVVSSSTAYMQLSSLTSDDSAVYYCARNGDSDYYSGMDYWGQGTSVTVSS
VL: DILLTQSPAILSVSPGERVSFSCRTSQSIGTNIHWYQQRTNGFPRLLIKNVSESISGIPSRFSGSGSGTDFILSINSVESEDIADYYCQQSNTWPFTFGGGTKLEIK
notes: Tested as conditioned medium of transfected HEK-293 cells; also called ch2B6 mAb; chimeric mAb
As to B4, the “Mean Fluorescence” value in assay [2] worked out at 141; in assay [3], 193; in assay [4], 45.6.

The values are drawn from patent publication US20120141476A1 (MacroGenics, published 2012).
